Results reported in article PMC8567388 (iScience, 2021).
Ends that are not written are not given here.

Experiments:
PSD-95 61-724 6xHis [1] = molecular target: T1, PSD-95 61-724 6xHis (human, UniProt P78352 61-724); assay: fluorescence polarisation
[2] = molecular target: T2, PSD-95 61-724 6xHis pSer142 (human, UniProt P78352 61-724, phosphoserine at 142); assay: fluorescence polarisation
PSD-95 61-724 6xHis [3] = molecular target: T1, PSD-95 61-724 6xHis; assay: co-sedimentation
[4] = molecular target: T2, PSD-95 61-724 6xHis pSer142; assay: co-sedimentation
[5] = molecular target: T3, PSD-95 61-724 6xHis pSer73 (human, UniProt P78352 61-724, phosphoserine at 73); assay: co-sedimentation
[6] = molecular target: T3, PSD-95 61-724 6xHis pSer73; assay: fluorescence polarisation

binding result (PSD-95 61-724 6xHis [1])	binding result [2]	Kd (PSD-95 61-724 6xHis [1]) [nM]	Binder	further results
binds	binds	–	{TAMRA}-NNGPAGKHMVTEV [Peptide ligand: Kv1.7 (TAMRA-NNG-PAGKHMVTEV)]	–
–	–	1200	{TAMRA}-NNGYEKLSSIESDV [Peptide ligand: GluN2B (TAMRA-NNG-YEKLSSIESDV)]	–
binds	binds	–	{TAMRA}-NNGSNAKAVETDV [Peptide ligand: Kv1.4 (TAMRA-NNG-SNAKAVETDV)]	–
–	–	2700	{TAMRA}-NNGNTANRRTTPV [Peptide ligand: Stargazin (TAMRA-NNG-NTANRRTTPV)]	–
–	–	–	GluN2B cytoplasmic tail (aa 1170-1482) (domain or fragment) GGPCTNRSHLKHGTGEKHGVVGGVPAPWEKNLTNVDWEDRSGGNFCRSCPSKLHNYSSTVAGQNSGRQACIRCEACKKAGNLYDISEDNSLQELDQPAAPVAVTSNASSTKYPQSPTNSKAQKKNRNKLRRQHSYDTFVDLQKEEAALAPRSVSLKDKGRFMDGSPYAHMFEMPAGESSFANKSSVPTAGHHHNNPGSGYMLSKSLYPDRVTQNPFIPTFGDDQCLLHGSKSYFFRQPTVAGASKTRPDFRALVTNKPVVVTLHGAVPGRFQKDICIGNQSNPCVPNNKNPRAFNGSSNGHVYEKLSSIESDV	binding result (PSD-95 61-724 6xHis [3]): binds; binding result [4]: binds; binding result [5]: binds
binds	–	–	{TAMRA}-NNGKKMPSIESDV [Peptide ligand: GluN2A (TAMRA-NNG-KKMPSIESDV)]	binding result [6]: binds
